Assay results from PMC9513282.
HiLyteFluor 488 = N-terminal fluorophore; QXL 520 = dark quencher

Tests used:
[1] = biological target: AMUC_1438 CAT construct (residues 41-427) (Akkermansia muciniphila) (UniProt B2UKY7)
[2] = biological target: AMUC_1438 FL construct (Akkermansia muciniphila) (UniProt B2UKY7)

Question: {HiLyteFluor 488}-TPSPSTPPTK-{QXL 520} (not fully specified (residue 5); printed as TPSP**S**TPPTK) [IgA1FRET, custom FRET O-glycopeptide substrate based on the IgA1 hinge region] was tested. Which KM of hydrolysis of the IgA1FRET O-glycopeptide (FRET dequenching, steady-state kinetics, Michaelis-Menten fit; 1 μM enzyme, 0 to 1000 μM substrate, 20 mM Tris-HCl pH 7.0, 100 μM zinc chloride) [1] did it give?
Answer: 300 μM

Question: And the KM of hydrolysis of the IgA1FRET O-glycopeptide (FRET dequenching, steady-state kinetics, Michaelis-Menten fit; 1 μM enzyme, 0 to 1000 μM substrate, 20 mM Tris-HCl pH 7.0, 100 μM zinc chloride) [2]?
Answer: 122 μM
